Results as given in patent US20170002094A1 (Takeda / Millennium, published 2017).
Where two headings read alike, the source gives them in different places.

Key:
[1] = target: T1, human plasma kallikrein (active form) (human, UniProt P03952 20-638)
[2] = target: T1, human plasma kallikrein (active form); experiment: cell-based or functional assay

T1 sequence (P03952 20-638 limits assumed): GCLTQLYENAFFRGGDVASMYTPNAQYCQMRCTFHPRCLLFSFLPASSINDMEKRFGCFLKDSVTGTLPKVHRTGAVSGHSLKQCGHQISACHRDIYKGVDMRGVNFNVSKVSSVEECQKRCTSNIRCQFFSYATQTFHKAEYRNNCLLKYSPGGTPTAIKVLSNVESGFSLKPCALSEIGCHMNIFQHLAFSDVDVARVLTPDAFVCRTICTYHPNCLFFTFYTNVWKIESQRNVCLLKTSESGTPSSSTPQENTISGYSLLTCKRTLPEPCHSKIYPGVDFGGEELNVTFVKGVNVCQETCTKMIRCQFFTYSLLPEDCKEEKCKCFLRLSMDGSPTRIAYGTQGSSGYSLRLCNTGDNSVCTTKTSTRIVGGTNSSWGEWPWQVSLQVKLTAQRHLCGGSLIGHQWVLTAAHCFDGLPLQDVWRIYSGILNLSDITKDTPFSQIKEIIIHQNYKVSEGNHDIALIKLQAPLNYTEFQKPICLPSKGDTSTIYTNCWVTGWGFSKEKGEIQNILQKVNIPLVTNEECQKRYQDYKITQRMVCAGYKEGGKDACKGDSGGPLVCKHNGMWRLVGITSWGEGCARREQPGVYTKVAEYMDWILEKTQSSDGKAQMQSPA

ecallantide (designed binder) was tested, and the IC50 (read off the curve) [1] was 0.07 µM.

B1: DX-2930 (antibody, human IgG1, kappa, V domains shown)
VH: EVQLLESGGGLVQPGGSLRLSCAASGFTFSHYIMMWVRQAPGKGLEWVSGIYSSGGITVYADSVKGRFTISRDNSKNTLYLQMNSLRAEDTAVYYCAYRRIGVPRRDEFDIWGQGTMVTVSS
VL: DIQMTQSPSTLSASVGDRVTITCRASQSISSWLAWYQQKPGKAPKLLIYKASTLESGVPSRFSGSGSGTEFTLTISSLQPDDFATYYCQQYNTYWTFGQGTKVEIKR
In the case of B1, the “IC50 (read off the curve)” value [2] is reported as ~0.07 µM.
